Measurements published in patent US20240409643A1, “ANTI-NMDAR2B ANTIBODIES, ANTIBODY-DRUG CONJUGATES, AND CHIMERIC ANTIGEN RECEPTORS, AND COMPOSITIONS AND METHODS OF USE” (THE TRUSTEES OF DARTMOUTH COLLEGE, priority 2021, published 2024).
Changes are numbered by the printed parent chain. Entries after “also recorded” stand apart in the source; their conditions may differ. Ends that are not written are not given here. * marks the point of attachment. 125I = [125I]*

B1: Fab9 (Fab, V domains shown)
VH: EVQLVESGGGLVQPGGSLRLSCAASGFNLSYSSMHWVRQAPGKGLEWVASISPYSGSTYYADSVKGRFTISADTSKNTAYLQMNSLRAEDTAVYYCARYYWYYYYGFDYWGQGTLVTVSS
VL: DIQMTQSPSSLSASVGDRVTITCRASQSVSSAVAWYQQKPGKAPKLLIYSASSLYSGVPSRFSGSRSGTDFTLTISSLQPEDFATYYCQQYVGYGSPITFGQGTKVEIK
notes: also called Ab9 (IgG form with the same VH and VL)
B2: Fab4 (Fab, V domains shown)
VH: EVQLVESGGGLVQPGGSLRLSCAASGFNLYYYSIHWVRQAPGKGLEWVAYISSYYGYTYYADSVKGRFTISADTSKNTAYLQMNSLRAEDTAVYYCARYYPGGWHAFDYWGQGTLVTVSS
VL: B1 VL with V92Y, S96Y
notes: also called Ab4 (IgG form with the same VH and VL)
B3: Fab10 (Fab, V domains shown)
VH: EVQLVESGGGLVQPGGSLRLSCAASGFNLYSSYMHWVRQAPGKGLEWVASISSSYGYTYYADSVKGRFTISADTSKNTAYLQMNSLRAEDTAVYYCARTVRGSKKPYFSGWAMDYWGQGTLVTVSS
VL: DIQMTQSPSSLSASVGDRVTITCRASQSVSSAVAWYQQKPGKAPKLLIYSASSLYSGVPSRFSGSRSGTDFTLTISSLQPEDFATYYCQQGSYLITFGQGTKVEIK
notes: also called Ab10 (IgG form with the same VH and VL)
B4: Fab5 (Fab, V domains shown)
VH: B3 VH with S52Y, G56S, Y57S
VL: B3 VL with S92A, Y93G
notes: also called Ab5 (IgG form with the same VH and VL)
B5: Fab8 (Fab, V domains shown)
VH: B3 VH with L29I, S31Y
VL: B3 VL with G91A
notes: also called Ab8 (IgG form with the same VH and VL)
B6: Fab7 (Fab, V domains shown)
VH: B3 VH with L29F, Y30S, Y33S, M34I
VL: B3 VL with Y93H
notes: also called Ab7 (IgG form with the same VH and VL)
B7: Fab6 (Fab, V domains shown)
VH: B3 VH with L29I, M34I
VL: B3 VL with S92G, Y93S
notes: also called Ab6 (IgG form with the same VH and VL)

Experiments:
NCI H82 cells [1] = test: In vivo treatment of NCI H82 tumors in nu/nu mice with ifenprodil
Description: (§1) Anti-NMDA receptor agent: ifenprodil was used as an exemplary NMDA receptor antagonist
Mouse treatment: Male nu/nu mice were injected subcutaneously with NCI H82 cells (about 10^7 cells/mouse). Tumors became obvious after 2-3 weeks and commenced growing rapidly. Animals were divided into two groups. […] The other group was treated with saline vehicle. Changes in the tumor size and body weight were recorded daily.

[2] = cited from earlier work
NCI H82 cells [3] = test: In vivo combination treatment of NCI H82 tumors in nu/nu mice: cyclophosphamide followed by ifenprodil; conditions: cyclophosphamide 75 mg/kg body weight daily for 3 days
Description: Anti-cancer agent: Cyclophosphamide, an alkylating agent, was used as an exemplary anti-cancer agent.
as §1
Mouse treatment: Male nu/nu mice were injected subcutaneously with NCI H82 cells (about 10^7 cells/mouse). […] Animals were divided into two groups. […] The other group was treated with saline vehicle. Changes in the tumor size were recorded daily.

LNCAP cells = test: LNCAP cell viability assay (AlamarBlue); assay type: cell-based; conditions: for Effect on LNCAP cell viability: 48 hours incubation, % of fluorescence of vehicle treated cells
Description: LNCAP cells were plated in 96 well plates at 1-2×10^4 cells/well. The cells were incubated with PBS with glycine containing albumin (1.25 mg/ml) in the presence of different concentrations of a NMDAR receptor antagonist, MK-801 (also known as dizocilpine) or memantine, dilutions of the anti-NMDAR1 antisera described in Example 1 or anti-NMDAR1 IgG isolated from such antisera, or vehicle only. Each group was run in quadruplicate. AlamarBlue® was later added to each well following an incubation period of 48 hours, and fluorescent readings were taken with excitation at 530-560 nm and emission at 590 nm and above on a SYNERGY™ HT Multi Detection Reader to (BioTek®). Cell viability (%) was calculated as % of fluorescence of vehicle treated cells at 48 hours.

[4] = molecular target: T1, 125I-labeled NMDAR2B immunogen peptide (human); test: radioimmunoassay with 125I-labeled and free peptide
T1 construct: also called ^125I-labeled (radiolabel on the N-terminal tyrosine) NMDAR2B immunogen peptide
T1 peptide: Y(125I)KDAHEKDDF-NH2
Description: Radioimmunoassay: Radioimmunoassay on Fab3 through Fab10 was performed using ¹²⁵I-labeled (radiolabel on the N-terminal tyrosine) and free (no radiolabel or additional conjugation) NMDAR2B immunogen peptides.

[5] = molecular target: T2, BSA-coupled NMDAR2B immunogen peptide (human; bovine, UniProt P02769 25-607, carrier, cross-linked to the peptide with glutaraldehyde; C-terminal amide; coupled to BSA with glutaraldehyde); test: competition displacement ELISA, additional studies (FIG. 7B)
T2 construct: also called NMDAR2B immunogen peptide coupled to BSA; unlabeled BSA-coupled NMDAR2B immunogen peptide
T2 sequence (P02769 25-607 limits assumed): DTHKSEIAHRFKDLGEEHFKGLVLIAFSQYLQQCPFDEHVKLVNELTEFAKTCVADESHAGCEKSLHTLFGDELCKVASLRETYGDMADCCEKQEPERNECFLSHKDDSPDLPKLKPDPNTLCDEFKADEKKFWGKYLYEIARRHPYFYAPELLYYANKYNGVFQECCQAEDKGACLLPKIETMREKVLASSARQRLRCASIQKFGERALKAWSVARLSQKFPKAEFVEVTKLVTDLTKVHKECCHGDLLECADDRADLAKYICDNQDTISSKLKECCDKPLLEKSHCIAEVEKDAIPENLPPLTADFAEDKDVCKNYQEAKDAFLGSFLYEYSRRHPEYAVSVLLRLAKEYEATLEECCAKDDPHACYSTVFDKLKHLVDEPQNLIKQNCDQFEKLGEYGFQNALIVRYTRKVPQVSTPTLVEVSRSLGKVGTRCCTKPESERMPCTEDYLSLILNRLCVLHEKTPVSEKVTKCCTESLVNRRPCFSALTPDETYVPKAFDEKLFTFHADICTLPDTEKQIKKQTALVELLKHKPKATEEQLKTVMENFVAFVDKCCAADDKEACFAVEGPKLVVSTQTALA
Description: (§2) ELISA assay: 96 well plates (ELISA Microlon 66 (Greiner Bio-one); #655061) were coated with Affinipure anti-human IgG antibodies (which bind to Fabs) (Jackson Immunoresearch Laboratories; #109-005-0060). Each well was added with a 50 μl volume containing 5 ng or 10 ng of an appropriate Fab and another […] volume containing the NMDAR2B immunogen peptide in a range of 10 μg to 10 ng, followed by incubation at 4° C. for 24-48 hours. Plates were washed, and each well was incubated with the biotinylated peptide at 100 ng/ml for 30 minutes to one hour and then with HRP-conjugated streptavidin (Thermo Industries; Product #N100) was added at 1:10,000 dilution for 30 minutes. Plates were washed and incubated with a mixture of 0.007% H₂O₂ and Amplex® Ultrared Reagent (Molecular Probes) for one hour, and fluorescence was read at excitation at 550 nm and fluorescence at 590 nm on a SYNERGY™ HT Multi Detection Reader to (BioTek®).
ELISA assay: ELISA as in Example 6 was performed using the NMDAR2B immunogen peptide coupled to BSA (as prepared in Example 4) and the NMDAR2B immunogen peptide coupled to biotinylated BSA (as prepared in Example 7). Competition displacement curves were generated as repeated points in quadruplicate, and dissociation constants for respective Fabs to the BSA-coupled NMDAR2B immunogen peptide were calculated.

[6] = molecular target: T3, NMDAR2B immunogen peptide, free (YKDAHEKDDF-amide) (human); test: competition ELISA against peptide coupled to biotinylated BSA
T3 construct: Free form: no radiolabel and no further conjugation; also called free NMDAR2B immunogen peptide; free peptide
T3 peptide: YKDAHEKDDF-NH2
Description: as §2
ELISA assay: ELISA as in Example 6 was performed using the NMDAR2B immunogen peptide coupled to biotinylated BSA and then, to test competition, the free NMDAR2B immunogen peptide.

[7] = molecular target: T4, Biotinylated NMDAR2B immunogen peptide (human, also: biotinylated, site not given here); test: ELISA, Fab captured on anti-human IgG, streptavidin-HRP detection
T4 construct: also called biotinylated peptide
T4 peptide: YKDAHEKDDF-NH2
Description: as §2

Molecule | binding result [4] | binding result [6] | binding result [7] | other results
CC(C(O)c1ccc(O)cc1)N1CCC(Cc2ccccc2)CC1 (centres unmarked) [ifenprodil] |  |  |  | Tumor growth with ifenprodil alone (NCI H82 cells [1]; animals that only received ifenprodil but not cyclophosphamide, after a day of decrease in size): continued to grow; Time for tumors to grow back to their original size (NCI H82 cells [1]; ifenprodil 2.5 mg/kg body weight intraperitoneally once daily): about 10 days; Tumor growth relative to original size (NCI H82 cells [1]; ifenprodil 2.5 mg/kg body weight intraperitoneally once daily, by two weeks of treatment, saline controls >6 times): < 2 times their original size; Tumor size relative to original size after initial shrinkage (NCI H82 cells [1]; ifenprodil 2.5 mg/kg body weight intraperitoneally once daily, in about a day): about 80%; Body weight versus saline control (NCI H82 cells [1]; over 8 days of treatment): no differences between groups; ED50 in mice [2]: about 350 mg/kg body weight
O=P1(N(CCCl)CCCl)NCCCO1 (centres unmarked) [cyclophosphamide] |  |  |  | Effect of cyclophosphamide treatment on tumor growth (NCI H82 cells [3]): does not inhibit tumor growth beyond the time of cyclophosphamide administration; also recorded: slowed but did not stop tumor growth
CC12CC3CC(C)(C1)CC(N)(C3)C2 [memantine] |  |  |  | Effect on LNCAP cell viability (LNCAP cells): reduced cell viability in a does-dependent manner
C[C@]12N[C@H](Cc3ccccc31)c1ccccc12 [MK-801, dizocilpine] |  |  |  | Effect on LNCAP cell viability (LNCAP cells): reduced cell viability in a does-dependent manner; Concentration at which the reduction of cell viability was statistically significant (p<0.01) (LNCAP cells; LNCAP cells, 48 hours): > 300 pM
B1 | no binding | no binding | no binding | Kd [5]: ~5 nM
B2 | no binding | no binding | no binding | 
B3 | no binding | no binding | no binding | 
B4 | no binding | no binding | no binding | 
B5 | no binding | no binding | no binding | 
B6 | no binding | no binding | no binding | 
B7 | no binding | no binding | no binding | 
